{
  "source": "patent US5156956A",
  "about": "“Transgultaminase” (Ajinomoto Co., Inc., priority 1987, dated 1992)",
  "key": {"[1]": {"assay": "Measurement of BTGase activity (hydroxamate method)", "type": "biochemical", "settings": "freeze dried product prepared in Example 1", "description": "Measurement of the activity of BTGase is carried out by performing a reaction using benzyloxycarbonyl-L-glutaminyl glycine and hydroxylamine as substrates in the absence of Ca^2+, forming an iron complex with the resulting hydroxamic acid in the presence of trichloroacetic acid, measuring absorption at 525 nm and determining the amount of hydroxamic acid by a calibration curve to calculate the activity. The BTGase activity is measured by the method described below, unless otherwise indicated.\nTo 0.05 ml of an enzyme solution is added 0.5 ml of Reagent A and they are mixed with each other. After reacting at 37° C. for 30 minutes, Reagent B is added thereto to discontinue the reaction and form an Fe complex. Thereafter, absorbance is measured at 525 nm. As a control, absorbance is measured after reacting a previously thermally inactivated enzyme solution in a similar manner and a difference in absorbance between the control and the enzyme solution is measured. Separately, a calibration curve is prepared using L-glutamic acid γ-monohydroxamio acid instead of the enzyme solution, and the amount of hydroxamic acid produced is determined by the difference in absorbance described above. An enzyme activity which produces 1 μmol of hydroxamic acid per 1 minute is defined as 1 unit."}, "Gelatin": {"system": "Gelatin", "assay": "Gelatin gel after heating in boiling water bath", "type": "biochemical", "design": "key: x: complete solution; .smallcircle.: gelled condition (not dissolved even after heating)", "settings": "0.02 U/mg protein, 37° C. 1 h, then boiling water bath 10 minutes", "description": "0.1M Tris-HCl buffer (pH 7.6) was added to gelatin (manufactured by Nitta Gelatin Co., Ltd.) so as to form 5.10 wt. % solution. Gelatin was completely dissolved at 60° C. for 3 minutes and the same BTGase as that of Example 4 was added to the solution in 0.02 U/mg protein. After thoroughly mixing, the mixture was reacted at 37° C. for an hour and then heated in a boiling water bath for 10 minutes. Immediately thereafter, the condition was observed.\nFor purposes of comparison, the system which was identically treated except for adding no BTGase was used as control."}},
  "data": [
    {"molecule": "BTGase: microorganism-derived transglutaminase; in Examples 4-11 the freeze dried product prepared in Example 1 (S. mobaraense, i.e. BTG-1) (protein, UniProt P81453 77-407, looked up) Protein-glutamine …: DSDDRVTPPAEPLDRMPDPYRPSYGRAETVVNNYIRKWQQVYSHRDGRKQQMTEEQREWLSYGCVGVTWVNSGQYPTNRLAFASFDEDRFKNELKNGRPRSGETRAEFEGRVAKESFDEEKGFQRAREVASVMNRALENAHDESAYLDNLKKELANGNDALRNEDARSPFYSALRNTPSFKERNGGNHDPSRMKAVIYSKHFWSGQDRSSSADKRKYGDPDAFRPAPGTGLVDMSRDRNIPRSPTSPGEGFVNFDYGWFGAQTEADADKTVWTHGNHYHAPNGSLGAMHVYESKFRNWSEGYSDFDRGAYVITFIPKSWNTAPDKVKQGWP", "values": [
      {"measurement": "specific activity", "setting": "[1]", "result": 2.50, "unit": "Units/mg protein"},
      {"measurement": "Condition of 5% Gelatin, +BTG", "setting": "Gelatin", "result": ".smallcircle."},
      {"measurement": "Condition of 10% Gelatin, +BTG", "setting": "Gelatin", "result": ".smallcircle."}
    ]}
  ]
}
